The target in assay [1] is NKG2D on primary NK cells purified from healthy donor's PBMCs (human) (UniProt P26718). Put plainly: cell-based or functional assay.
Assay [2] deals with recombinant human NKG2D-ECD-Fc (extracellular domain of NKG2D fused to human Fc) (human) (UniProt P26718). The experiment in a line: ELISA on coated NKG2D-ECD-Fc.
Assay [3] has as its target cyno-NKG2D/Dap10 over-expressed in CHO cells (cyno) (UniProt P61252). The experiment in a line: FACS on CHO cells over expressing cynoNKG2D.
In assay [4] the target is T1, NKG2D on primary NK cells purified from healthy donor's PBMCs (human, UniProt P26718 1-216).
T1 construct: whole, on cells
T1 sequence (looked up): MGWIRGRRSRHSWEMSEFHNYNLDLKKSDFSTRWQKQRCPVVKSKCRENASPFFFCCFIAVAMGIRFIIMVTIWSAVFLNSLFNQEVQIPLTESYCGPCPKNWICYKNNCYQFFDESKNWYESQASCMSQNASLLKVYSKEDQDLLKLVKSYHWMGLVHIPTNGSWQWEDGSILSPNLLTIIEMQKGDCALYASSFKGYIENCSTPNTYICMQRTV
Put plainly: FACS on primary NK cells, 100 nM and 10 nM.

Assay [5] concerns the target T1, NKG2D on primary NK cells purified from …. Put plainly: FACS on primary NK cells, two concentrations.
For assay [6] the target is unchanged. Put plainly: FACS on cells.

Chain of cyno-NKG2D/Dap10 over-expressed in CHO cells (cyno) (P61252 whole entry): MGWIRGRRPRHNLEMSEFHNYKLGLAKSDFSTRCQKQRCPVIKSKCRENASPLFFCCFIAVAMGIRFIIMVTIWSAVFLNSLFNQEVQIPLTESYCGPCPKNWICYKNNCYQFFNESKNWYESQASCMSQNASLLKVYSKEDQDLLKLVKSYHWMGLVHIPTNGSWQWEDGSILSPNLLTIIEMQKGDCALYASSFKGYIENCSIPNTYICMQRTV

B1: IM1091 CD3/5T4/NKG2D mut(VL-VH) (protein, part only; not given: anti-CD3 Fab, anti-5T4 scFv, linkers, not shown: another chain or arm of the molecule; small tags and cut ends)
VL: QSALTQPASVSGSPGQSITISCSGSSSNIGNNAVNWYQQLPGKAPKLLIYADDLLPSGVSDRFSGSKSGTSAFLAISGLQSEDEADYYCAAWDDSLNGPVFGGGTKLTVL
VH: QVQLVESGGGLVKPGGSLRLSCAASGFTFSSYGMHWVRQAPGKGLEWVAFIRYDGSNKYYADSVKGRFTISRDNSKNTLYLQMNSLRAEDTAVYYCAKDAGEGDGTYFDYWGQGTTVTVSS
In turn, B1 returned an activation as measured by CD107a MFI on CD56^+gated NK cells population in assay [1] of 35 to 40%.

B2: IM1244 CD3x5T4x NKG2D-cl-1 (L-H) (protein, part only; not given: anti-CD3 Fab, anti-5T4 scFv, linkers, not shown: another chain or arm of the molecule; small tags and cut ends)
VL: DIVLTQSPASLAVSLGQRAIISCKASQSVSFAGSNLMHWYQQKPGQQPKLLIYRASNLEVGVPTRFSGSGSGTDFTLNIHPVDEDDAATYYCQQSREYPFTFGSGTKLEIK
VH: EVQLQQSGPELVKPGASVKISCKASAFNFTSYYLHWVKQGPGQGLEWIGWIYPGSGDTKYNEKFKGKATLTADTSSSAANMKLSSLTSEDSAVYYCARNRIFDSYYVDSMDYWGQGTSVTVSS
By EC50 is commonly meant the concentration needed to bring the measured effect to its halfway point. In the case of B2, the EC50 in assay [2] was 2.6 nM; in assay [3], 21 nM.

B3: mAb001 (antibody, V domains shown)
VH: B2 VH
VL: B2 VL
notes: Mouse hybridoma mAb, protein A purified; also called IM, NKG2D mouse hybridoma cl- 1; NKG2D-cl-1
B3: in assay [4], the binding result is “binds”.

B4: IM1245 CD3x5T4x NKG2D-cl-1 (H-L) (protein, part only; not given: anti-CD3 Fab, anti-5T4 scFv, linkers, not shown: another chain or arm of the molecule; small tags and cut ends)
VH: B2 VH
VL: B2 VL
Regarding B4, the 50% effective concentration (EC50) was determined as 1.1 nM in assay [2] and 13 nM in assay [3].

B5: IM1250 CD3x5T4x NKG2D-cl-19 (L-H) (protein, part only; not given: anti-CD3 Fab, anti-5T4 scFv, linkers, not shown: another chain or arm of the molecule; small tags and cut ends)
VL: DILLTQSPAILSVSPGERVSFSCRASQSIGTSIHWYQQRTNVSPRLLIKYASESISGIPSRFSGSGSGTDFTLSINNVESEDIADYYCQHSNRWPLTFGAGTKLELK
VH: QVQLKESGPGLVAPSQSLSITCTVSGFSLTSYAISWFRQPPGKGLECLGVIWTGGGTNYNSVFKSRLSIIKDNSKSQVFLKMNSLQTDDTARYYCARKGDEGYWGYFDVWGTGTTVTVSS
Regarding B5, the EC50 in assay [3] is 2.3 nM.

B6: mAb019 (antibody, V domains shown)
VH: B5 VH
VL: B5 VL
notes: Mouse hybridoma mAb, protein A purified; also called IM, NKG2D mouse hybridoma cl- 19; NKG2D-cl-19
With B6, in assay [5], the binding result was “binds”.

B7: IM1248 CD3x5T4x NKG2D-cl-10 (L-H) (protein, part only; not given: anti-CD3 Fab, anti-5T4 scFv, linkers, not shown: another chain or arm of the molecule; small tags and cut ends)
VL: DIVLTQSPASLAMSLGKRATISCRASESVSIMGTNLINWYQQKLGQPPKLLIYHASNLETGVPARFSGSGSRTDFTLTIDPVEEDDVAVYYCLQGRKIPRTFGGGTKLEIK
VH: QVQLQQPGAELVKPGASVKLSCKASGYTFTTYWIQWIKQRPGQGLEWIGEIDPSDIFTNYNQKFKGKATLTVDTSSSTAYMQLSSLTSEDSAVYYCARGVYDGYYVGYFDVWGTGTTVTVSS
On to B7, for which the EC50 in assay [2] is 1.7 nM; in assay [3], 5.9 nM.

B8: IM1249 CD3x5T4x NKG2D-cl-10 (H-L) (protein, part only; not given: anti-CD3 Fab, anti-5T4 scFv, linkers, not shown: another chain or arm of the molecule; small tags and cut ends)
VH: B7 VH
VL: B7 VL
Turning to B8, the EC50 was determined as 0.7 nM in assay [2] and 5.3 nM in assay [3].

B9: mAb010 (antibody, V domains shown)
VH: B7 VH
VL: B7 VL
notes: Mouse hybridoma mAb, protein A purified; also called IM, NKG2D mouse hybridoma cl- 10; NKG2D-cl-10
As for B9, in assay [4], the binding result is “binds”.

B10: IM1246 CD3x5T4x NKG2D-cl-9 (L-H) (protein, part only; not given: anti-CD3 Fab, anti-5T4 scFv, linkers, not shown: another chain or arm of the molecule; small tags and cut ends)
VL: DVLMTQTPLSLPVSLGDQASISCRSSQSIVHTNGNTYLEWYLQKPGQSPKLLIYRVFNRFSGVPDRFSGSGSGTEFTLKISRVEAEDLGVYYCFQGSHVPFTFGAGTKLELK
VH: EVKLLQSGGGLVQPGGSLKLSCAASGIDLSRYWMSWVRRAPGKGLEWIGEINPDSSTINYAPSLKDKFIISRDNAKNTLSLQMRKVRSEDTALYFCIRRRYYGSSYWYFDVWGTGTTVTVSS
In turn, B10 registered a concentration for a half-maximal effect (EC50) in assay [3] of 15 nM.

B11: IM1247 CD3x5T4x NKG2D-cl-9 (H-L) (protein, part only; not given: anti-CD3 Fab, anti-5T4 scFv, linkers, not shown: another chain or arm of the molecule; small tags and cut ends)
VH: B10 VH
VL: B10 VL
With B11, in assay [3], the EC50 came to 30 nM.

B12: mAb009 (antibody, V domains shown)
VH: B10 VH
VL: B10 VL
notes: Mouse hybridoma mAb, protein A purified; also called IM, NKG2D mouse hybridoma cl- 9; NKG2D-cl-9
Regarding B12, the binding result in assay [6] was “binds”.
